No end group written: not given here. fluorescein = fluorescein (N-terminal label)
How the values were obtained:
Zuo1-ΔN8 = experiment: peptide competition with nascent chain crosslinking (XL-Zuo1); type: biochemical, Saccharomyces cerevisiae; details: RNCs Pgk1-100, RAC-ΔN8, Δssb; peptide added prior to 400 µM BS3 crosslinking, 5 or 50 µM
From the text: Fig. 3 Nascent chain binding to the Ssz1-SBD is modulated by the N-terminus of Zuo1. a Amino acid sequence of the ScZuo1N. Arrows indicate the positions of truncations in Zuo1-ΔN8, Zuo1-ΔN16, and Zuo1-ΔN49. The color code is as in Fig. 2a. The secondary structure derived from the crystal structure is depicted above. b The Zuo1N LP-motif interferes with the contact of nascent Pgk1-100 with Zuo1 and Ssz1. Ribosome-free extracts obtained from Δssb1Δssb2 (Zuo1, Ssz1), Δssb1Δssb2 RAC-ΔN8 (ΔN8, Ssz1), or Δssb1Δssb2 RAC-ΔN16 (ΔN16, Ssz1) strains (upper panel) were added to RNCs from Δssb1Δssb2Δzuo1Δssz1 translation extract prior to crosslinking. Crosslink products between Zuo1 and nascent Pgk1-100 (XL-Zuo1) and Ssz1 and nascent Pgk1-100 (XL-Ssz1), respectively. c, d Quantification of crosslinking between nascent Pgk1-100 and Zuo1 (c) and Ssz1 (d). Autoradiographs as shown in (b) were employed for the quantification of nascent Pgk1-100 and the crosslink products XL-Zuo1 and XL-Ssz1. Values were normalized as described in Methods. The efficiency of crosslinking is given as a percentage of nascent Pgk1-100 present in the reaction. […]
(§1) Chemical crosslinking of ribosome-bound nascent chains to Ssb, Zuo1, or Ssz1 was analyzed essentially as described. […] Samples were analyzed on Tris-Tricine gels[56] followed by autoradiography. […]

ATP-bound DnaK = details: read-out: affinity for ATP-bound DnaK, low-affinity state; cited from earlier work
Ssz1 in RAC-ΔN8 = experiment: peptide competition with nascent chain crosslinking (XL-Ssz1); type: biochemical, Saccharomyces cerevisiae
From the text: Fig. 3 Nascent chain binding to the Ssz1-SBD is modulated by the N-terminus of Zuo1. a Amino acid sequence of the ScZuo1N. Arrows indicate the positions of truncations in Zuo1-ΔN8, Zuo1-ΔN16, and Zuo1-ΔN49. The color code is as in Fig. 2a. The secondary structure derived from the crystal structure is depicted above. b The Zuo1N LP-motif interferes with the contact of nascent Pgk1-100 with Zuo1 and Ssz1. Ribosome-free extracts obtained from Δssb1Δssb2 (Zuo1, Ssz1), Δssb1Δssb2 RAC-ΔN8 (ΔN8, Ssz1), or Δssb1Δssb2 RAC-ΔN16 (ΔN16, Ssz1) strains (upper panel) were added to RNCs from Δssb1Δssb2Δzuo1Δssz1 translation extract prior to crosslinking. Crosslink products between Zuo1 and nascent Pgk1-100 (XL-Zuo1) and Ssz1 and nascent Pgk1-100 (XL-Ssz1), respectively. c, d Quantification of crosslinking between nascent Pgk1-100 and Zuo1 (c) and Ssz1 (d). Autoradiographs as shown in (b) were employed for the quantification of nascent Pgk1-100 and the crosslink products XL-Zuo1 and XL-Ssz1. Values were normalized as described in Methods. The efficiency of crosslinking is given as a percentage of nascent Pgk1-100 present in the reaction. Experiments were performed in triplicate, with the exception of the XL-Zuo1-ΔN8 (shown in c), which was performed only once. Shown is the mean (bars) and the result of each biologically independent experiment (dots). Error bars indicate the standard deviation of the mean. e Crosslinking of the nascent chain to Ssz1 requires a functional peptide binding groove. Ribosome-free extracts from Δssb1Δssb2 RAC-ΔN8 (Zuo1-ΔN8, Ssz1) or Δssb1Δssb2 RACmut-ΔN8 (Zuo1-ΔN8, Ssz1mut) (upper panel) was added to RNCs generated in Δssb1Δssb2Δzuo1Δssz1 translation extract as described in Fig. 1b. […] RNCs were generated in a Δssb1Δssb2Δzuo1Δssz1 translation extract and ribosome-free extract from Δssb1Δssb2 RAC-ΔN8 (Zuo1-ΔN8, Ssz1) was added. […]
as §1

ScSsz1-Zuo1NΔLP complex = target: T1, ScSsz1-Zuo1NΔLP complex (Saccharomyces cerevisiae, UniProt P32527+P38788); type: binding; details: fluorescence anisotropy; N-terminally fluorescein-labelled peptide, 40 nM mixed 1:1 with protein; pH 7.5, 200 mM KCl; 30 min, room temperature; Ssz1-Zuo1NΔLP
T1 construct: His6-SUMO (N); made in house
Procedure: (§2) 1 µM BSA was added to prevent unspecific binding of the fluorescently labelled peptide to the microplate (Greiner Bio-One opaque 384 well plate). Fluorescence anisotropy measurements were performed using the LP-peptide (MFSLPTL) or the NR-peptide (NRLLLTG) labelled at the N terminus with fluorescein (Peptide Specialty Laboratories GmbH, Heidelberg). Two-fold serial dilutions of each protein (ScSsz1-Zuo1N or ScSsz1-Zuo1NΔLP) were mixed in a 1:1 ratio with 40 nM peptides in anisotropy buffer in 384-well opaque plates (Greiner Bio One) and were incubated at room temperature for 30 min. Measurements were performed in triplicate using a plate reader (SpectraMax M5e Multi Mode Microplate reader, Molecular Devices). To determine the binding constant (KD) the data were fitted to a one-site binding equation using Python[57].
(§3) Ssz1-Zuo1NΔLP Ssz1-Zuo1NΔLP
(§4) Supplementary Figure 6. Figure S6
(§5) An al ysi s o f su b strate b in di ng to ScRAC co re vari ants b y fl uo rescen ce an i so trop y.
(§6) (a) Binding curves of the fluorescently labeled LP-pept ide or (b ) NR-peptide to Ssz1-Zuo1N (circle) or
(§7) Ssz1-Zuo1NDLP (square) are shown. The mean and standard deviation from three technical replicates
(§8) is indicated. Source data are provided as a Source Data file.

ScSsz1-Zuo1N complex = target: T2, ScSsz1-Zuo1N complex (Saccharomyces cerevisiae, UniProt P32527+P38788); experiment: fluorescence anisotropy peptide binding; details: N-terminally fluorescein-labelled peptide, 40 nM mixed 1:1 with protein, pH 7.5, 200 mM KCl, 30 min, room temperature, Ssz1-Zuo1N
T2 construct: His6-SUMO (N); made in house
T2 sequence (P38788 1-538): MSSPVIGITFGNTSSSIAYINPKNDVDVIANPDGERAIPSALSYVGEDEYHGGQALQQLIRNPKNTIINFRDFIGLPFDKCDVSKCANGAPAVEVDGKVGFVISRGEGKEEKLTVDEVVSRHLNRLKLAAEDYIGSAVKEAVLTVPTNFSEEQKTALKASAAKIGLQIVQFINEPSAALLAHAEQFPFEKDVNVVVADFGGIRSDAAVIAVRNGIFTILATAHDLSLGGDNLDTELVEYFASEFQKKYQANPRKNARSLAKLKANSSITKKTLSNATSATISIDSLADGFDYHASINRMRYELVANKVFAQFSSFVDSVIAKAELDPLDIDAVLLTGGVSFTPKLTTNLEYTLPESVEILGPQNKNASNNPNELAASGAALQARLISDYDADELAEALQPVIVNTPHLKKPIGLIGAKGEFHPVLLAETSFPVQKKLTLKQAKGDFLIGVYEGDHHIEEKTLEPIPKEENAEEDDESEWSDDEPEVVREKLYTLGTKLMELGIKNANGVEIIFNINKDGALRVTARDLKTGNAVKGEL
T2 sequence (P32527 1-50 partner): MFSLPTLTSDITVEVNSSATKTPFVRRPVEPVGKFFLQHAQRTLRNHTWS
Procedure: as §2, §3, §4, §5, §6, §7, §8

ScSsz1-Zuo1NΔLP = experiment: nanoDSF melting temperature with/without LP-peptide; type: binding, Saccharomyces cerevisiae; details: DMSO negative control (<0.5%), pH 7.5, 200 mM KCl, 20 to 90 °C at 1.5 °C/min, three measurements shown
Procedure: (§9) The melting temperature of ScSsz1-Zuo1N, ScSsz1-Zuo1NΔLP or ScSsz1mut-Zuo1NΔLP with or without the LP-peptide (Peptide Specialty Laboratories GmbH, Heidelberg) were determined using the Prometheus NT.48 nanoDSF system using nano-DSF grade capillaries (NanoTemper Technologies GmbH). The measurements were performed in 20 mM Hepes/KOH pH 7.5, 200 mM KCl, 5 mM MgCl2, 1 mM DTT. The LP-peptide, which was dissolved in DMSO, was pre-diluted in the above buffer such that the final DMSO concentration in the experiment was below 0.5%. DMSO diluted in the same way was added to the negative control. Intrinsic protein fluorescence was measured continuously at 330 nm and 350 nm with a temperature gradient ranging from 20 to 90 °C at a rate of 1.5 °C/min. […]
(§10) (a-b) NanoDSF analysis of Ssz1-Zuo1N (blue) and Ssz1-Zuo1NDLP (orange) in a and Ssz1-Zuo1NDLP wit hout t he LP-pept ide (orange) or wit h t he LP-pept ide (blue) in b. Three measurements are shown.
(§11) Source data are provided as a Source Dat a f ile.
(§12) (c) Residues (L439S/K440P/I448F/G495K) mutated in Ssz1mut to block substrate binding to Ssz1-SBDb (cyan) are in stick representation (upper panel). Zuo1N is shown in orange a nd the LP-motif in yellow. Multiple sequence alignment of Hsp70 homologs (lower panel) wit h the mutations highlighted in yellow. The alignment is colored as in Fig. 2a. […]

[1] = nanoDSF thermal stability of RAC core complexes; type: physicochemical, Saccharomyces cerevisiae; details: 20 mM Hepes/KOH pH 7.5, 200 mM KCl, 5 mM MgCl2, 1 mM DTT, 20 to 90 °C at 1.5 °C/min, 330/350 nm, no peptide, three measurements shown
Procedure: as §9, §10, §11, §12

[2] = target: T3, ScSsz1-Zuo1NΔLP complex (ScSsz1 with ScZuo1NΔLP residues 10-50) (S. cerevisiae, UniProt P38788 1-538; P32527 10-50); experiment: fluorescence polarisation; fluorescence anisotropy; two-fold serial dilutions of the protein complex mixed 1:1 with 40 nM fluorescein peptide; 20 mM Hepes/KOH pH 7.5, 200 mM KCl, 5 mM MgCl2, 1 mM DTT, 1 µM BSA; room temperature, 30 min; one-site binding fit; affinity called estimated; details: both partners purified
T3 construct: Ssz1, S. cerevisiae; Zuo1, S. cerevisiae, residues 10-50, lacking the LP-motif (ScZuo1NΔLP); residues of the 3C site may be left on Zuo1NΔLP; not shown: His6-MBP, N-terminal, cleaved
T3 sequence (looked up) 1: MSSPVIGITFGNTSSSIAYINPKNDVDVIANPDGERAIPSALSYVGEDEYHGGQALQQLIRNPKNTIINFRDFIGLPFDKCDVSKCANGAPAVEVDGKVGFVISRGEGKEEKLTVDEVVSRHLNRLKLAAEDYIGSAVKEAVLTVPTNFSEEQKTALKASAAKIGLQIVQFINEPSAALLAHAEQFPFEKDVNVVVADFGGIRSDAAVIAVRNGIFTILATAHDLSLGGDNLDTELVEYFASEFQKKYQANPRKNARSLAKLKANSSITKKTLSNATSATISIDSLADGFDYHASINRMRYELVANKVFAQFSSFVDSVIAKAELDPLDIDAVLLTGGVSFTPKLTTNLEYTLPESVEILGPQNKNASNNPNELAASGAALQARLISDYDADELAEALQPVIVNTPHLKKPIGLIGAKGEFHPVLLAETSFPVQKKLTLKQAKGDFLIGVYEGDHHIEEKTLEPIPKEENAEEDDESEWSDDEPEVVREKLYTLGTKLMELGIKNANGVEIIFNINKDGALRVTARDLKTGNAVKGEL
T3 sequence (looked up) 2: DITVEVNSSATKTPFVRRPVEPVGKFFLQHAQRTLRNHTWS

[3] = target: T3, ScSsz1-Zuo1NΔLP complex (ScSsz1 with …); experiment: nanoDSF; melting temperature of the complex with or without LP-peptide; 20 mM Hepes/KOH pH 7.5, 200 mM KCl, 5 mM MgCl2, 1 mM DTT; 20 to 90 °C at 1.5 °C/min; details: both partners purified

NRLLLTG [NR-peptide, NRLLLTG peptide, serves as an Hsp70 model substrate]
effect on nascent chain crosslinking to Zuo1-ΔN8 (XL-Zuo1) (Zuo1-ΔN8): Neither of the peptides added prior to the crosslinking reaction affected nascent chain crosslinking to Zuo1-ΔN8
Kd (ATP-bound DnaK): 23.8 ± 3.8 µM
displacement of nascent chain (Ssz1 in RAC-ΔN8; 50 µM peptide, ribosome-bound nascent chain): partly displaced
effect on nascent chain crosslinking to Ssz1 (XL-Ssz1) (Ssz1 in RAC-ΔN8; RNCs Pgk1-100, RAC-ΔN8, Δssb, peptide added prior to 400 µM BS3 crosslinking, 5 or 50 µM): to a lesser extent also NR-peptide, significantly reduced crosslinking of the nascent chain to Ssz1
displacement compared with LP-peptide (Ssz1 in RAC-ΔN8; ribosome-bound nascent chain, 50 µM peptide): significantly lower
affinity (ScSsz1-Zuo1NΔLP complex): below the detection limit
affinity (ScSsz1-Zuo1N complex): below the detection limit

B1: Ssz1-Zuo1NΔLP: ScSsz1 with ScZuo1NΔLP (residues 10-50) lacking the LP-motif (protein)
chain 1: MSSPVIGITFGNTSSSIAYINPKNDVDVIANPDGERAIPSALSYVGEDEYHGGQALQQLIRNPKNTIINFRDFIGLPFDKCDVSKCANGAPAVEVDGKVGFVISRGEGKEEKLTVDEVVSRHLNRLKLAAEDYIGSAVKEAVLTVPTNFSEEQKTALKASAAKIGLQIVQFINEPSAALLAHAEQFPFEKDVNVVVADFGGIRSDAAVIAVRNGIFTILATAHDLSLGGDNLDTELVEYFASEFQKKYQANPRKNARSLAKLKANSSITKKTLSNATSATISIDSLADGFDYHASINRMRYELVANKVFAQFSSFVDSVIAKAELDPLDIDAVLLTGGVSFTPKLTTNLEYTLPESVEILGPQNKNASNNPNELAASGAALQARLISDYDADELAEALQPVIVNTPHLKKPIGLIGAKGEFHPVLLAETSFPVQKKLTLKQAKGDFLIGVYEGDHHIEEKTLEPIPKEENAEEDDESEWSDDEPEVVREKLYTLGTKLMELGIKNANGVEIIFNINKDGALRVTARDLKTGNAVKGEL
chain 2: DITVEVNSSATKTPFVRRPVEPVGKFFLQHAQRTLRNHTWS
modifications: left off: His6-SUMO, N-terminal, state not stated | His6-MBP, N-terminal, cleaved
notes: ScSsz1 with ScZuo1NΔLP (residues 10-50) lacking the LP-motif
melting temperature of Ssz1-Zuo1NΔLP without LP-peptide (ScSsz1-Zuo1NΔLP): 40.3 °C
melting temperature (thermal stability of RAC core complex) [1]: 39.7 °C

B2: LP-peptide (MFSLPTL) labelled at the N terminus with fluorescein (peptide)
peptide: fluorescein-MFSLPTL
notes: LP-motif of Zuo1, S. cerevisiae, residues 1-7; source: synthetic peptide (Peptide Specialty Laboratories GmbH, Heidelberg)
Kd [2]: 11.9 ± 4 µM

B3: LP-peptide (MFSLPTL, ScZuo1 residues 1-7), free peptide (peptide)
peptide: MFSLPTL
notes: as for B2
binding result [3]: binds
